Laboratory results published in paper PMC10655040.

Biological target: CXCR4 (human (endogenous in HeLa)) (UniProt P61073)
Assay: flow cytometry on cells; competition on HeLa cells: 100 nM sfGFP(Y151pAzF)-SDF-1β coincubated with 1 μM commercial SDF-1β (R&D) or 1 μM CXCR4 blocking agent AMD3100; 10 000 cells per sample

Sequence of UniProt P61073 (P61073 whole entry): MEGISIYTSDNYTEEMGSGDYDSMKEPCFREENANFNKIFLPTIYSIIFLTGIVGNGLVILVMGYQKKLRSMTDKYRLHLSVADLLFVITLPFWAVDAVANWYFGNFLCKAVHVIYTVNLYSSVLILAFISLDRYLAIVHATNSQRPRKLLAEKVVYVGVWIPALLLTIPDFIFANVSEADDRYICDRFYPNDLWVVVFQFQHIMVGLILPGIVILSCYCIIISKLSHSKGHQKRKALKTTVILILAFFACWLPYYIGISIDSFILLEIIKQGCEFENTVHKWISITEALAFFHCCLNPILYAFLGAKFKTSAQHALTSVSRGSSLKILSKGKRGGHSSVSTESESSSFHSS

sfGFP(Y151pAzF)-SDF-1β (ligand) showed a percent decrease of binding to HeLa cells with 1 μM AMD3100 (CXCR4 blocking agent) of 30%.
